From US20020192796A1

Target: HP1032 protein, sigma28 factor of RNA polymerase (FliA) of Helicobacter pylori (Helicobacter pylori strain 26695)
Test: cell-based or functional assay

## HP1122 protein, anti-sigma28 factor (FlgM) of Helicobacter pylori
  flaA mRNA, RNA slot blot hybridization, HP1122-inactivated strain against wild type: 2.5 fold
  fold decrease in flaA mRNA, RNA slot blot hybridization, HP1122-overexpressing N6 strain against wild type: 2 fold
